Assay results from the supplement of paper PMC11246515.
± gives the standard deviation of the averaged measurements.

Experiment: total protein half-life in vivo (active degradation + dilution); higher = more stable protein
[1] = E. coli NCM3722 delta-clpP delta-lon delta-hslV, growth: N-lim chemostat, doubling time 6 h
[2] = E. coli NCM3722 delta-clpP, growth: N-lim chemostat, doubling time 6 h
[3] = E. coli NCM3722 delta-hslV, growth: N-lim chemostat, doubling time 6 h
[4] = E. coli NCM3722 delta-smpB, growth: N-lim chemostat, doubling time 6 h
[5] = wild type E. coli NCM3722, growth: C-lim chemostat, doubling time 3 h
[6] = wild type E. coli NCM3722, growth: C-lim chemostat, doubling time 6 h
[7] = wild type E. coli NCM3722, growth: C-lim chemostat, doubling time 12 h
[8] = wild type E. coli NCM3722, growth: N-lim chemostat, doubling time 6 h
[9] = wild type E. coli NCM3722, growth: N-lim chemostat, doubling time 12 h
[10] = wild type E. coli NCM3722, growth: P-lim chemostat, doubling time 6 h
[11] = wild type E. coli NCM3722, growth: P-lim chemostat, doubling time 12 h
[12] = E. coli NCM3722 delta-lon, growth: N-lim chemostat, doubling time 6 h

Sequence | total protein half-life in vivo [1] | total protein half-life in vivo [2] | total protein half-life in vivo [3] | total protein half-life in vivo [4] | total protein half-life in vivo [5] | total protein half-life in vivo [6] | total protein half-life in vivo [7] | total protein half-life in vivo [8] | total protein half-life in vivo [9] | total protein half-life in vivo [10] | total protein half-life in vivo [11] | total protein half-life in vivo [12]
MKRLSITVRLTLLFILLLSVAGAGIVWTLYNGLASELKWRDDTTLINRTAQIKQLLIDGVNPDTLPVYFNRMMDVSQDILIIHGDSINKIVNRTNVSDGMLNNIPASETISAAGIYRSIINDTEIDALRINIDEVSPSLTVTVAKLASARHNMLEQYKINSIIICIVAIVLCSVLSPLLIRTGLREIKKLSGVTEALNYNDSREPVEVSALPRELKPLGQALNKMHHALVKDFERLSQFADDLAHELRTPINALLGQNQVTLSQTRSIAEYQKTIAGNIEELENISRLTENILFLARADKNNVLVKLDSLSLNKEVENLLDYLEYLSDEKEICFKVECNQQIFADKILLQRMLSNLIVNAIRYSPEKSRIHITSFLDTNSYLNIDIASPGTKINEPEKLFRRFWRGDNSRHSVGQGLGLSLVKAIAELHGGSATYHYLNKHNVFRITLPQRN | 5.59 ± 0.15 h | 6.99 ± 0.076 h | 6.03 ± 0.26 h | 5.75 ± 0.48 h | 3.13 ± 0.66 h | 7.13 ± 0.64 h | 10.1 h | 6.174 ± 0.057 h | 12.98 ± 0.022 h | 5.63 ± 0.89 h | 13.4 ± 0.56 h | –
MKRPALILICLLLQACSATTKELGNSLWDSLFGTPGVQLTDDDIQNMPYASQYMQLNGGPQLFVVLAFAEDGQQKWVTQDQATLVTQHGRLVKTLLGGDNLIEVNNLAADPLIKPAQIVDGASWTRTMGWTEYQQVRYATARSVFKWDGTDTVKVGSDETPVRVLDEEVSTDQARWHNRYWIDSEGQIRQSEQYLGADYFPVKTTLIKAAKQ | 6.57 ± 0.37 h | 6.43 h | – | 5.12 ± 0.2 h | – | – | – | – | – | – | – | 6.59 ± 0.19 h
MKRPDYRTLQALDAVIRERGFERAAQKLCITQSAVSQRIKQLENMFGQPLLVRTVPPRPTEQGQKLLALLRQVELLEEEWLGDEQTGSTPLLLSLAVNADSLATWLLPALAPVLADSPIRLNLQVEDETRTQERLRRGEVVGAVSIQHQALPSCLVDKLGALDYLFVSSKPFAEKYFPNGVTRSALLKAPVVAFDHLDDMHQAFLQQNFDLPPGSVPCHIVNSSEAFVQLARQGTTCCMIPHLQIEKELASGELIDLTPGLFQRRMLYWHRFAPESRMMRKVTDALLDYGHKVLRQD [P0A8S1] | 5.48 ± 0.31 h | 5.93 ± 1.3 h | 5.46 ± 0.27 h | 4.96 ± 0.39 h | 3.01 ± 0.31 h | – | 11.6 ± 0.16 h | 5.84 ± 0.67 h | 9.72 ± 0.46 h | 6.03 ± 0.091 h | 13.4 ± 0.89 h | 5.78 ± 0.57 h
MKRPNFLFVMTDTQATNMVGCYSGKPLNTQNIDSLAAEGIRFNSAYTCSPVCTPARAGLFTGIYANQSGPWTNNVAPGKNISTMGRYFKDAGYHTCYIGKWHLDGHDYFGTGECPPEWDADYWFDGANYLSELTEKEISLWRNGLNSVEDLQANHIDETFTWAHRISNRAVDFLQQPARADEPFLMVVSYDEPHHPFTCPVEYLEKYADFYYELGEKAQDDLANKPEHHRLWAQAMPSPVGDDGLYHHPLYFACNDFVDDQIGRVINALTPEQRENTWVIYTSDHGEMMGAHKLISKGAAMYDDITRIPLIIRSPQGERRQVDTPVSHIDLLPTMMALADIEKPEILPGENILAVKEPRGVMVEFNRYEIEHDSFGGFIPVRCWVTDDFKLVLNLFTSDELYDRRNDPNEMHNLIDDIRFADVRSKMHDALLDYMDKIRDPFRSYQWSLRPWRKDARPRWMGAFRPRPQDGYSPVVRDYDTGLPTQGVKVEEKKQKF | 5.62 h | – | – | 2 h | 2.28 h | 4.35 ± 0.17 h | 7.04 ± 0.66 h | – | – | 4.04 h | 8.72 ± 5.3 h | 3.1 h
MKRSLLFSAVLCAASLTSVHAAQPITEPEFASDIVDRYADHIFYGSGATGMALVVIDGNQRVFRSYGETRPGNNVRPQLDSVVRIASLTKLMTSEMLVKLLDQGTVKLNDPLSKYAPPGARVPTYNGTPITLVNLATHTSALPREQPGGAAHRPVFVWPTREQRWKYLSTAKLKAAPGSQAAYSNLAFDLLADALANASGKPYTQLFEEQITRPLGMKDTTYTPSPDQCRRLMVAERGASPCNNTLAAIGSGGVYSTPGDMMRWMQQYLSSDFYQRSNQADRMQTLIYQRAQFTKVIGMDVPGKADALGLGWVYMAPKEGRPGIIQKTGGGGGFITYMAMIPQKNIGAFVVVTRSPLTRFKNMSDGINDLVTELSGNKPLVIPAS [P0AD70] | 3.75 ± 0.98 h | 2.49 ± 0.33 h | 3.37 ± 0.26 h | 3.17 ± 0.11 h | 1.96 ± 0.34 h | 3.73 ± 0.71 h | 5.69 ± 1.3 h | 3.96 ± 1 h | 5.33 ± 0.35 h | 3.62 ± 0.42 h | 6.14 ± 1.1 h | 3.68 ± 0.084 h
MKRVSQMTALAMALGLACASSWAAELAKPLTLDQLQQQNGKAIDTRPSAFYNGWPQTLNGPSGHELAALNLSASWLDKMSTEQLNAWIKQHNLKTDAPVALYGNDKDVDAVKTRLQKAGLTHISILSDALSEPSRLQKLPHFEQLVYPQWLHDLQQGKEVTAKPAGDWKVIEAAWGAPKLYLISHIPGADYIDTNEVESEPLWNKVSDEQLKAMLAKHGIRHDTTVILYGRDVYAAARVAQIMLYAGVKDVRLLDGGWQTWSDAGLPVERGTPPKVKAEPDFGVKIPAQPQLMLDMEQARGLLHRQDASLVSIRSWPEFIGTTSGYSYIKPKGEIAGARWGHAGSDSTHMEDFHNPDGTMRSADDITAMWKAWNIKPEQQVSFYCGTGWRASETFMYARAMGWKNVSVYDGGWYEWSSDPKNPVATGERGPDSSK | 5.98 ± 1.8 h | 6.55 ± 1.7 h | 6.79 ± 0.81 h | 6.47 ± 0.44 h | 3.2 ± 0.56 h | 6.183 ± 0.011 h | 12.3 ± 0.77 h | 6.69 ± 1.1 h | 13 ± 1.9 h | 6.19 ± 0.064 h | 14.4 ± 0.58 h | 6.48 ± 0.13 h
MKSALKKSVVSTSISLILASGMAAFAAHAADDVKLKATKTNVAFSDFTPTEYSTKGKPNIIVLTMDDLGYGQLPFDKGSFDPKTMENREVVDTYKIGIDKAIEAAQKSTPTLLSLMDEGVRFTNGYVAHGVSGPSRAAIMTGRAPARFGVYSNTDAQDGIPLTETFLPELFQNHGYYTAAVGKWHLSKISNVPVPEDKQTRDYHDNFTTFSAEEWQPQNRGFDYFMGFHAAGTAYYNSPSLFKNRERVPAKGYISDQLTDEAIGVVDRAKTLDQPFMLYLAYNAPHLPNDNPAPDQYQKQFNTGSQTADNYYASVYSVDQGVKRILEQLKKNGQYDNTIILFTSDNGAVIDGPLPLNGAQKGYKSQTYPGGTHTPMFMWWKGKLQPGNYDKLISAMDFYPTALDAADISIPKDLKLDGVSLLPWLQDKKQGEPHKNLTWITSYSHWFDEENIPFWDNYHKFVRHQSDDYPHNPNTEDLSQFSYTVRNNDYSLVYTVENNQLGLYKLTDLQQKDNLAAANPQVVKEMQGVVREFIDSSQPPLSEVNQEKFNNIKKALSEAK | – | – | – | – | 2.86 ± 0.07 h | 5.43 ± 0.41 h | – | 7.26 h | 6.32 h | 5 ± 0.63 h | – | –
